Data published in publication PMC5120205 (Nature Communications, 2016).

What was measured:
Details in all cases: both partners purified
[1] = biological target: T1, recombinant IsdB NEAT1 domain (Staphylococcus aureus USA300, UniProt Q2FHV2); assay: ELISA
T1 construct: not shown: FLAG, C-terminal, kept

[2] = biological target: T2, recombinant full-length IsdB (Staphylococcus aureus USA300, UniProt Q2FHV2); assay: SPR
T2 construct: not shown: FLAG, C-terminal, kept

[3] = biological target: T2, recombinant full-length IsdB; assay: BLI; Octet; antibody captured on anti-species sensors (15 ug/ml), 32 nM rIsdB bound, then 1 uM Hb or buffer
[4] = biological target: T3, recombinant full-length IsdB (Staphylococcus aureus USA300, UniProt Q2FHV2); assay: SPR; remark: listed apart in the source
T3 construct: not shown: FLAG, C-terminal, kept

IsdB NEAT2 domain = IsdB NEAT2 domain (Staphylococcus aureus USA300, UniProt Q2FHV2); assay: SPR
[5] = biological target: T3, recombinant full-length IsdB; assay: ELISA
[6] = biological target: T4, recombinant full-length IsdB (Staphylococcus aureus USA300, UniProt Q2FHV2); assay: ELISA; remark: listed apart in the source
T4 construct: not shown: FLAG, C-terminal, kept

[7] = biological target: T5, recombinant IsdB NEAT2 domain (Staphylococcus aureus USA300, UniProt Q2FHV2); assay: ELISA
T5 construct: not shown: FLAG, C-terminal, kept

B1: D4-10-N1 (antibody, V domains shown)
VH: QVQLQESGPGLVKPSETLSLICTVSGGSISSSSYYWGWIRQTPERNLEWIGIIYFSGTTYYNPSLQSRVSMSLDRSTNRFSLRLSSVTAADTAIYYCAKPKSRDRGGPGDDYFGMDVWGQGIMVTVSS
VL: DIQLTQSPSFLSASVADRVTITCRASQAVRSSLAWYQQKPGKAPQLLIYSASTLENGVSSRFSGSGPGTEFTLTISSLQPEDVGTYYCQQLNTYPFTFGPGTKVEIK
[1]
  binding result: binds
[2]
  Kd: < 1 pM

B2: germlined D4-10 (NEAT1) (antibody, V domains shown)
VH: QLQLQESGPGLVKPSETLSLTCTVSGGSISSSSYYWGWIRQPPGKGLEWIGSIYYSGSTYYNPSLKSRVTISVDTSKNQFSLKLSSVTAADTAVYYCAKPKSRDRGGPGDDYFGMDVWGQGIMVTVSS
VL: DIQLTQSPSFLSASVADRVTITCRASQAVRSSLAWYQQKPGKAPQLLIYSASTLENGVSSRFSGSGPGTEFTLTISSLQPEDVGTYYCQQLNTYPFTFGPGTKVEIK
[3]
  binding result: binds

B3: D4-10-N1 antibody (human IgG) (antibody, V domains shown)
VH: QVQLQESGPGLVKPSETLSLICTVSGGSISSSSYYWGWIRQTPERNLEWIGIIYFSGTTYYNPSLQSRVSMSLDRSTNRFSLRLSSVTAADTAIYYCAKPKSRDRGGPGDDYFGMDVWGQGIMVTVSS
VL: DIQLTQSPSFLSASVADRVTITCRASQAVRSSLAWYQQKPGKAPQLLIYSASTLENGVSSRFSGSGPGTEFTLTISSLQPEDVGTYYCQQLNTYPFTFGPGTKVEIK
[4]
  binding result: binds

B4: D4-10-N1 germline-reverted (IGHV4-39) (antibody, V domains shown)
VH: QLQLQESGPGLVKPSETLSLTCTVSGGSISSSSYYWGWIRQPPGKGLEWIGSIYYSGSTYYNPSLKSRVTISVDTSKNQFSLKLSSVTAADTAVYYCAKPKSRDRGGPGDDYFGMDVWGQGIMVTVSS
VL: DIQLTQSPSFLSASVADRVTITCRASQAVRSSLAWYQQKPGKAPQLLIYSASTLENGVSSRFSGSGPGTEFTLTISSLQPEDVGTYYCQQLNTYPFTFGPGTKVEIK
[4]
  binding result: binds

B5: D2-06-N2 (IGHV1-69*01 germline-reverted) (antibody, V domains shown)
VH: QVQLVQSGAEVKKPGSSVKVSCKASGGTFSSYAISWVRQAPGQGLEWMGGIIPIFGTANYAQKFQGRVTITADESTSTAYMELSSLRSEDTAVYYCARDRPPGAQFDTWGQGTLVTVSS
VL: not shown
IsdB NEAT2 domain
  other: > 600 fold

B6: D2-06-N2 (IGHV1-69*01 germline-reverted) variant F54L (antibody, V domains shown)
VH: QVQLVQSGAEVKKPGSSVKVSCKASGGTFSSYAISWVRQAPGQGLEWMGGIIPILGTANYAQKFQGRVTITADESTSTAYMELSSLRSEDTAVYYCARDRPPGAQFDTWGQGTLVTVSS
VL: not shown
[5]
  binding result: binds

B7: D2-06-N2 (IGHV1-69*01 germline-reverted) variant T56I (antibody, V domains shown)
VH: QVQLVQSGAEVKKPGSSVKVSCKASGGTFSSYAISWVRQAPGQGLEWMGGIIPIFGIANYAQKFQGRVTITADESTSTAYMELSSLRSEDTAVYYCARDRPPGAQFDTWGQGTLVTVSS
VL: not shown
[5]
  binding result: binds

B8: D2-06-N2 (IGHV1-69*01 germline-reverted) variant G50R (antibody, V domains shown)
VH: QVQLVQSGAEVKKPGSSVKVSCKASGGTFSSYAISWVRQAPGQGLEWMGRIIPIFGTANYAQKFQGRVTITADESTSTAYMELSSLRSEDTAVYYCARDRPPGAQFDTWGQGTLVTVSS
VL: not shown
[6]
  binding result: no binding

B9: D4-30-N2 (antibody, V domains shown)
VH: QVQLVQSGSEVKKPGSSVTLSCKASGDTFNTHTYSWVRQAPGQRLEWIGGIMPIFAASKSAPHLQDRLTITANKATRTAYMELTSLTSDDSGVYYCARDGRGALQYWGQGTLVTVSS
VL: DIVMTQSPLSLPVTLGQPASISCSSAQSLVHSDGDSYLTWFHQRPGQSPRRLIYKVSIRDAGVPDRFSGSGSGTDFTLKISRVEAEDVGVYYCMQATHWPYTFGQGTKLEIK
[7]
  binding result: binds

B10: D4-30-N2 antibody (human IgG) (antibody, V domains shown)
VH: QVQLVQSGSEVKKPGSSVTLSCKASGDTFNTHTYSWVRQAPGQRLEWIGGIMPIFAASKSAPHLQDRLTITANKATRTAYMELTSLTSDDSGVYYCARDGRGALQYWGQGTLVTVSS
VL: DIVMTQSPLSLPVTLGQPASISCSSAQSLVHSDGDSYLTWFHQRPGQSPRRLIYKVSIRDAGVPDRFSGSGSGTDFTLKISRVEAEDVGVYYCMQATHWPYTFGQGTKLEIK
[5]
  binding result: binds
IsdB NEAT2 domain
  binding result: binds
